# Target: recombinant IPSE/alpha-1 expressed in tobacco plants (N-terminally tagged H6F-IPSE) (Schistosoma mansoni)
# Test: SDS-PAGE under reducing and non-reducing conditions; purified IPSE on a 12% Bis-Tris gel, with and without DTT, Coomassie brilliant blue staining
substance,measurement,value
recombinant IPSE/alpha-1 expressed in tobacco plants (N-terminally tagged H6F-IPSE) (natural protein),stoichiometry N,2

# Source: publication PMC5550006
